Molecular target: human ALDH2 T244A substituted enzyme (human) (UniProt P05091)
Experiment: crystal structure

“human ALDH2 T244A substituted enzyme (from UniProt P05091 18-517)” was tested. Which stoichiometry N did it give?
Its stoichiometry N is 4.
